First the molecules themselves.
B1: NRC3_random_hg19_143_o1 (dsDNA)
DNA 1: GCCAAGAATCAGACTCTTAAGTAGATGCCTGTAGCTGCGATTGACAGCGTAGAATGAAGG
DNA 2: CCTTCATTCTACGCTGTCAATCGCAGCTACAGGCATCTACTTAAGAGTCTGATTCTTGGC
B2: NRC3_wobSeed109_DR4_A16T_o1 (dsDNA)
DNA 1: GCCGTCCAAGGTCATTGGAGGTCAGTGAAGACAGATGCGATTGACAGCGTAGAATGAAGG
DNA 2: CCTTCATTCTACGCTGTCAATCGCATCTGTCTTCACTGACCTCCAATGACCTTGGACGGC
B3: NRC3_random_hg19_424_o1 (dsDNA)
DNA 1: GCGCCTTCTCTACAGGGCATACAGACTGACATTGAGGCGATTGACAGCGTAGAATGAAGG
DNA 2: CCTTCATTCTACGCTGTCAATCGCCTCAATGTCAGTCTGTATGCCCTGTAGAGAAGGCGC
B4: NRC3_random_hg19_448_o1 (dsDNA)
DNA 1: GCAGAAGAAGACCAAAGTATTCCCTCACTGCCTATGGCGATTGACAGCGTAGAATGAAGG
DNA 2: CCTTCATTCTACGCTGTCAATCGCCATAGGCAGTGAGGGAATACTTTGGTCTTCTTCTGC
B5: NRC3_wobSeed26_DR1_A14T_o1 (dsDNA)
DNA 1: GCTCTAGTTGGTCTAAGGTCACACACTCGAAATGCGGCGATTGACAGCGTAGAATGAAGG
DNA 2: CCTTCATTCTACGCTGTCAATCGCCGCATTTCGAGTGTGTGACCTTAGACCAACTAGAGC
B6: NRC3_random_hg19_124_o1 (dsDNA)
DNA 1: GCTCAGTTCCTCTGCAGCCAACCAGTCTTGGTGCCTGCGATTGACAGCGTAGAATGAAGG
DNA 2: CCTTCATTCTACGCTGTCAATCGCAGGCACCAAGACTGGTTGGCTGCAGAGGAACTGAGC
B7: NRC3_wobSeed97_DR4_G16T_o1 (dsDNA)
DNA 1: GCCAAACTAGGTCACTAAAGGTCAAAGTCGAATGACGCGATTGACAGCGTAGAATGAAGG
DNA 2: CCTTCATTCTACGCTGTCAATCGCGTCATTCGACTTTGACCTTTAGTGACCTAGTTTGGC
B8: NRC3_wobSeed122_DR5_C24G_o1 (dsDNA)
DNA 1: GCGCTAGTTGGTCAGTAAAAGGTGACACACCGGTCGGCGATTGACAGCGTAGAATGAAGG
DNA 2: CCTTCATTCTACGCTGTCAATCGCCGACCGGTGTGTCACCTTTTACTGACCAACTAGCGC
B9: NRC3_wobSeed120_DR4_T8G_o1 (dsDNA)
DNA 1: GCCCGAGGAGGTTACGAGGGGGCATTCAGTGCGAATGCGATTGACAGCGTAGAATGAAGG
DNA 2: CCTTCATTCTACGCTGTCAATCGCATTCGCACTGAATGCCCCCTCGTAACCTCCTCGGGC
B10: NRC3_random_hg19_50_o1 (dsDNA)
DNA 1: GCTGAAGAGTTTCTAACTCTTTGTTCTTGAATCAAAGCGATTGACAGCGTAGAATGAAGG
DNA 2: CCTTCATTCTACGCTGTCAATCGCTTTGATTCAAGAACAAAGAGTTAGAAACTCTTCAGC
B11: NRC3_wobSeed116_DR4_A21T_o1 (dsDNA)
DNA 1: GCAGAATGAGGTTACCAAAGTTCAGGGAAACGCTTGGCGATTGACAGCGTAGAATGAAGG
DNA 2: CCTTCATTCTACGCTGTCAATCGCCAAGCGTTTCCCTGAACTTTGGTAACCTCATTCTGC

Chain of VDR:RXRa (P11473 whole entry, chain 1 of 2): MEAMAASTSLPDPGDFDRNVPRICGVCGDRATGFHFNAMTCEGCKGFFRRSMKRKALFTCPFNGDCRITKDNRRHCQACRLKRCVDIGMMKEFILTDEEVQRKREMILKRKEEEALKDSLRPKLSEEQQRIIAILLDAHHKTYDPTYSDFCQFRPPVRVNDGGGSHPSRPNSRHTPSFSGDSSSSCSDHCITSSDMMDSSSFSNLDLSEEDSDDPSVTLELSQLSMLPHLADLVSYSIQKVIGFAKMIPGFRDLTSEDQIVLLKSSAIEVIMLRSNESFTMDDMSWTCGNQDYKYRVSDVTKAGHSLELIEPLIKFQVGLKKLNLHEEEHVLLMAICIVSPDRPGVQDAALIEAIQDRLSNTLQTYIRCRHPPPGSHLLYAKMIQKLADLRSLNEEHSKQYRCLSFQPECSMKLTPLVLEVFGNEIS
Chain of VDR:RXRa (P19793 whole entry, chain 2 of 2): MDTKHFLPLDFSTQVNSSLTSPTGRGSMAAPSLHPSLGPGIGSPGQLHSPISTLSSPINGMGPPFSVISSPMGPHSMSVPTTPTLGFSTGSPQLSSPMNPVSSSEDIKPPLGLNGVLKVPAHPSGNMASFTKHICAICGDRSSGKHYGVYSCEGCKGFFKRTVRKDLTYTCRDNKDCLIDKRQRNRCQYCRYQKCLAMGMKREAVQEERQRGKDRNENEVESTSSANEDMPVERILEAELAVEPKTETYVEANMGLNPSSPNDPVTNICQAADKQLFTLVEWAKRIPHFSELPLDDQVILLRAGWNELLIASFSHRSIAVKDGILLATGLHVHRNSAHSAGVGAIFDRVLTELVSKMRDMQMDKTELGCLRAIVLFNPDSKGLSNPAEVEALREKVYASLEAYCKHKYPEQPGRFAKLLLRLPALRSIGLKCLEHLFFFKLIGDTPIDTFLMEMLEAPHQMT
Chain of RARg:RXRa (P13631 whole entry, chain 1 of 2): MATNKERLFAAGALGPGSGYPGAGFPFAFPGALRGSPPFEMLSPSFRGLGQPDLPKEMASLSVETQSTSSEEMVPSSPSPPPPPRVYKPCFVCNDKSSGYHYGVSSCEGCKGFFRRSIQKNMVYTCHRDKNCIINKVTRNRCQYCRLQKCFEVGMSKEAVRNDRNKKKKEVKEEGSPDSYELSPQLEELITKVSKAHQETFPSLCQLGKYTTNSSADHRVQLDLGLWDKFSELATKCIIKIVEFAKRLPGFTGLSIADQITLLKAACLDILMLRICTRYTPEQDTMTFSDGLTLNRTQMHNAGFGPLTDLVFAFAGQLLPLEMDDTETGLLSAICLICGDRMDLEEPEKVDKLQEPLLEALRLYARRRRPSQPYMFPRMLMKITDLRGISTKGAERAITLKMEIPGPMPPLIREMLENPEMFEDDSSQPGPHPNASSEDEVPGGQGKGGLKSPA
Chain of RARg:RXRa (P19793 whole entry, chain 2 of 2): as the sequence (P19793 whole entry, chain 2 of 2) above
Chain of PPARa:RXRa (Q07869 whole entry, chain 1 of 2): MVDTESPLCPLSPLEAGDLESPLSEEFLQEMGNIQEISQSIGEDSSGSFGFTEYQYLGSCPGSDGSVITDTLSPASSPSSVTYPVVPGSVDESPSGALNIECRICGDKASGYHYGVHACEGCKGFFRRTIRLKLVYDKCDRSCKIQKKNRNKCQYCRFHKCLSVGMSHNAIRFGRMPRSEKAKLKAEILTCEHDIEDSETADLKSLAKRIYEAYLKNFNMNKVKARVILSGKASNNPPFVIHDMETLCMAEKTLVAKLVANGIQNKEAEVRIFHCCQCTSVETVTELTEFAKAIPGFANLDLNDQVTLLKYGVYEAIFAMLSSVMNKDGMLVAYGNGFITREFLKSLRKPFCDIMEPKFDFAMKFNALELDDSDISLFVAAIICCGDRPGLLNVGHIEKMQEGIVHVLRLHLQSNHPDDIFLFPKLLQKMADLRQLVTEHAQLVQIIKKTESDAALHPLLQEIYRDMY
Chain of PPARa:RXRa (P19793 whole entry, chain 2 of 2): as the sequence (P19793 whole entry, chain 2 of 2) above

For one series, the target named is RARg:RXRa (Homo sapiens, UniProt P13631;P19793 full;full). The experiment in a line: no ligand; PBM; 270 nM : 90 nM RXRa; PBS pH 7.4, 2% milk, 0.02% Triton X-100, 1 mM DTT, BSA, 0.4 mg/ml salmon testes DNA. The following applies: tags: His kept;His cleaved; copies: 1;1; label: surface-attached array probe. In outline:
(§1)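 Probes were double-stranded and carried 34-nt variable regions with direct-repeat seeds, single-nucleotide variants, half-site ablations and random human genomic background sequences, printed on custom Agilent 4×180K protein-binding microarrays. Arrays were incubated 1 h with ligand-free nuclear receptor dimers in PBS pH 7.4, 2% milk, 0.02% Triton X-100, 1 mM DTT, 0.2 mg/mL BSA and 0.4 mg/ml salmon testes DNA. Antibodies against each partner (one per run) detected binding, and scanned fluorescence was regression-normalized. Binding z-scores use the random background probes as reference.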
As to B1, the binding signal was -0.43 PBM z-score against 500 random probes.

In another series the target is LXRa:RXRa (Homo sapiens, UniProt Q13133;P19793 full;full). The description is as above. The conditions noted are these: tags: His kept;His cleaved; copies: 1;1; label: surface-attached array probe. An outline of the steps: as §1
Chain of LXRa:RXRa (Q13133 whole entry, chain 1 of 2): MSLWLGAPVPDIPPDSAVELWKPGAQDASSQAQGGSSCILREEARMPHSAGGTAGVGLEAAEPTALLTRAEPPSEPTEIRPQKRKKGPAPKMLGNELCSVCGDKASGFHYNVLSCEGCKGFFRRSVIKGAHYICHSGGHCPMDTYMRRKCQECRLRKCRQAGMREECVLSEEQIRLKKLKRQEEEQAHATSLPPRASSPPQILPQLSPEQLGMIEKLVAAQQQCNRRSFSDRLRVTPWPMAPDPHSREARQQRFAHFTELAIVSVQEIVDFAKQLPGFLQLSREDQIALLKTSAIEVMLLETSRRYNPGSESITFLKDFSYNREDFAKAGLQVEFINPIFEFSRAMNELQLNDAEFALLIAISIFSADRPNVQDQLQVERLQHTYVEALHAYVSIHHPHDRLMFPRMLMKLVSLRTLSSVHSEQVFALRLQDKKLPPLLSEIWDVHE
Chain of LXRa:RXRa (P19793 whole entry, chain 2 of 2): as the sequence (P19793 whole entry, chain 2 of 2) above
Turning to B2, the binding signal is 8.57 PBM z-score against 500 random probes.
For the molecule B3, the binding signal was 0.42 PBM z-score against 500 random probes.
As to B4, the binding signal was -0.67 PBM z-score against 500 random probes.
Same read-out and setting: next, B5: 4.12 PBM z-score against 500 random probes.
As for B6, the binding signal was 0.33 PBM z-score against 500 random probes.
Turning to B1, the binding signal is -0.64 PBM z-score against 500 random probes.
Consider B7, for which the binding signal was 9.5 PBM z-score against 500 random probes.
Consider B8, for which the binding signal is 0.28 PBM z-score against 500 random probes.
As for B9, the binding signal is 8.32 PBM z-score against 500 random probes.
As for B10, the binding signal is -0.55 PBM z-score against 500 random probes.
The same measure, in the same setting: next, B11: 8.81 PBM z-score against 500 random probes.

The target of the next series is VDR:RXRa (Homo sapiens, UniProt P11473;P19793 full;full). The series is described as above. The following applies: tags: His kept;His cleaved; copies: 1;1; label: surface-attached array probe. In outline:
as §1
With B3, the binding signal was -0.21 PBM z-score against 500 random probes.
For the molecule B4, the binding signal is -0.71 PBM z-score against 500 random probes.
For the molecule B5, the binding signal is 4.12 PBM z-score against 500 random probes.
As to B6, the binding signal was -0.13 PBM z-score against 500 random probes.
For the molecule B1, the binding signal was -0.44 PBM z-score against 500 random probes.
Still for that read-out and setting: next, B8: 0.14 PBM z-score against 500 random probes.
For B10, the binding signal is -0.07 PBM z-score against 500 random probes.

The target in another series is PPARa:RXRa (Homo sapiens, UniProt Q07869;P19793 full;full). Described as above. The following applies: tags: GST kept;His cleaved; copies: 1;1; label: surface-attached array probe. In outline:
as §1
B4: the binding signal is -0.65 PBM z-score against 500 random probes.

The target of a further series is LXRb:RXRa (Homo sapiens, UniProt P55055;P19793 full;full). The description is as above. The following applies: tags: His kept;His cleaved; copies: 1;1; label: surface-attached array probe. An outline of the steps: as §1
Chain of LXRb:RXRa (P55055 whole entry, chain 1 of 2): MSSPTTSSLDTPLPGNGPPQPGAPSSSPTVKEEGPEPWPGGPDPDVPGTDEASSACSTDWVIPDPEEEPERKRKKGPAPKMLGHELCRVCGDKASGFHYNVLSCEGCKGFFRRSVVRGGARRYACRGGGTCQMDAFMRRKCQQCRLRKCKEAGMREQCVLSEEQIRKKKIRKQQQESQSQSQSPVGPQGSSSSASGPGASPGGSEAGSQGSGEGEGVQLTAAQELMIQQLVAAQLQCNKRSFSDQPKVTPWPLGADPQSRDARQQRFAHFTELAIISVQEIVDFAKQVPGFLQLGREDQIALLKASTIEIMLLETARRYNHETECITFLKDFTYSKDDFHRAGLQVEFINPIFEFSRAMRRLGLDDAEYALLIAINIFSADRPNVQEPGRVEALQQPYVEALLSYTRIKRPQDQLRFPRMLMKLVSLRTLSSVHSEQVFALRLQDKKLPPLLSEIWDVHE
Chain of LXRb:RXRa (P19793 whole entry, chain 2 of 2): as the sequence (P19793 whole entry, chain 2 of 2) above
B2: the binding signal is 7.27 PBM z-score against 500 random probes.
Still for that read-out and setting: next, B7: 8.55 PBM z-score against 500 random probes.
With B9, the binding signal is 7.6 PBM z-score against 500 random probes.
Same read-out and setting: in the case of B11 it was 6.78 PBM z-score against 500 random probes.
